The values below are quoted from earlier work in patent US8536148B2, “Disabling autophagy as a treatment for lysosomal storage diseases” (The United States of America, as Represented by the …, priority 2009, dated 2013).

For this data set, the system named is Hunter syndrome patients.
[1] abbreviates: from baseline, both dosing regimens.

B1: idursulfase: recombinant human I2S produced in a human cell line, approved for Hunter syndrome (protein, UniProt P22304 34-455; P22304 456-550, looked up)
Iduronate 2-sulfatase 42 kDa …: TDALNVLLIIVDDLRPSLGCYGDKLVRSPNIDQLASHSLLFQNAFAQQAVCAPSRVSFLTGRRPDTTRLYDFNSYWRVHAGNFSTIPQYFKENGYVTMSVGKVFHPGISSNHTDDSPYSWSFPPYHPSSEKYENTKTCRGPDGELHANLLCPVDVLDVPEGTLPDKQSTEQAIQLLEKMKTSASPFFLAVGYHKPHIPFRYPKEFQKLYPLENITLAPDPEVPDGLPPVAYNPWMDIRQREDVQALNISVPYGPIPVDFQRKIRQSYFASVSYLDTQVGRLLSALDDLQLANSTIIAFTSDHGWALGEHGEWAKYSNFDVATHVPLIFYVPGRTASLPEAGEKLFPYLDPFDSASQLMEPGRQSMDLVELVSLFPTLAGLAGLQVPPRCPVPSFHVELCREGKNLLKHFRFRDLEEDPYLPG
Iduronate 2-sulfatase 14 kDa …: NPRELIAYSQYPRPSDIPQWNSDKPSLKDIKIMGYSIRTIDYRYTVWVGFNPDEFLANFSDIHAGELYFVDSDPLQDHNMYNDSQGGDLFQLLMP
Regarding B1, under setting [1], the “Liver and spleen volumes” value is reported as “significantly reduced from baseline”; the “Urine GAG excretion” value is listed as “significantly reduced from baseline”. Moreover, the Tolerability result (human, in vivo) is given as “generally well tolerated”. Further, under “patients with Hunter syndrome”, the “Clinical improvement vs placebo” value is on record as “statistically significant improvement rate compared with placebo”.
